Paper PMC9596428

How the values were obtained:
[1] = target: mVenus-tagged CaMKIIα holoenzyme (mVenus-mCaMKIIα), wild type (mouse) (UniProt P11798); assay: FRET or BRET; in vitro time-lapse binary-FRET (mVenus lifetime for hetero-FRET to mCherry, anisotropy for homo-FRET); V-CaMKII homogenate (15-20 nM holoenzyme) with 10 µM purified NR2B fragment in 1x kinase buffer, 1 mM DTT, 1 mM CaCl2, 1 mM ATP, 1 mM MgCl2, 5 µM calmodulin; room temperature; followed over 3 h
[2] = target: mVenus-tagged CaMKIIα K42R mutant holoenzyme (mouse) (UniProt P11798); assay: as above

## mCherry-tagged NR2B binding fragment (6His-mCherry-Flag-NR2B 1265-1320) (from UniProt Q13224 1265-1320) (domain or fragment)
[1]
  hetero-FRET efficiency: 11.9%
[2]
  hetero-FRET efficiency: 12.6%
